The text below walks through data of article PMC11481484.

What all share (test): cross-linking + co-IP; BHK-21 cells 42 h post-electroporation with WT or mutant viral RNA cross-linked with 1 mM DSP in PBS, 10 min, room temperature, quenched with 125 mM glycine; lysis buffer 2 (10 mM sodium phosphate pH 7.4, 50 mM NaCl, 1% Triton X-100); IP with mAb E1-20 or control mAb; cross-link reversed by DTT; western blot with RuV pAb
A general note: In western blotting, separated proteins are transferred to a membrane and probed.

Test [1] deals with Rubella virus E2 envelope glycoprotein of the second-site revertant (N277I in the Y281A background) (Rubella virus (RuV)).
The target in test [2] is Rubella virus E2 envelope glycoprotein, Y281A mutant (Rubella virus (RuV)).
The target of test [3] is Rubella virus E2 envelope glycoprotein, pseudorevertant Y281V (Rubella virus (RuV)).

Turning to “Rubella virus capsid protein, D215A (second-site revertant) (from UniProt P08563 1-300) (natural protein)”, the Cp/E2 ratio in the E1 mAb IP, normalised to WT (ratio, WT set to 1) in test [1] came out at 0.85.

B1: Rubella virus capsid protein, wild type (natural protein)
chain: MASTTPITMEDLQKALEAQSRALRAGLAAGASQSRRPRPPRQRDSSTSGDDSGRDSGGPRRRRGNRGRGQRKDWSRAPPPPEERQESRSQTPAPKPSRAPPQQPQPPRMQTGRGGSAPRPELGPPTNPFQAAVARGLRPPLHDPDTEAPTEACVTSWLWSEGEGAVFYRVDLHFTNLGTPPLDEDGRWDPALMYNPCGPEPPAHVVRAYNQPAGDVRGVWGKGERTYAEQDFRVGGTRWHRLLRMPVRGLDGDTAPLPPHTTERIETRSARHPWRIRFGAPQAFLAGLLLAAVAVGTARA
Consider B1, for which the Cp/E2 ratio in the E1 mAb IP, normalised to WT (ratio, WT set to 1) in test [2] worked out at 0.31; in test [3], 0.46.
